The record followed here is the Human Domainome abundance scans (Beltran et al. 2025).

± gives the uncertainty stated by the source.

The labels stand for the following.
B1: Spectrin alpha chain, erythrocytic 1, residues 979 to 1036; numbered along this chain, P02549 (parent)
chain: EQRVMALYDFQARSPREVTMKKGDVLTLLSSINKDWWKVEAADHQGIVPAVYVRRLAH
B2: Histidine--tRNA ligase, cytoplasmic, residues 8 to 45; numbered along this chain, P12081 (parent)
chain: EELVKLQGERVRGLKQQKASAELIEEEVAKLLKLKAQL

In the first data set the parent is B1. The data set can be described thus: abundance fitness (aPCA) (normalised: wild type 0, dead -1); higher = more abundant; growth selection in yeast, the domain comes from the species named. To be noted: Homo sapiens.
As for EQRVMALYDFQARSPREVTMKKGDVLTLLSSINKDWWKVEAADHQGIVPAVYVRRLAP [H58P], the abundance fitness amounted to 0.358 ± 0.2.
Regarding EQRVMALYDFQARSPREVTMKKGDVLTLLSSINKDWWKVEAADHQGIVPARYVRRLAH [V51R], the abundance fitness is 0.643 ± 0.079.
Regarding EQRVMALYDFQARSPREVTMKKGDVLTLLSSINKDWWKVEAADHQGIVPALYVRRLAH [V51L], the abundance fitness is -0.083 ± 0.12.
With EQRVMALYDFQARSPREVTMKKGDVLTLLSSINKDWWKVEAADHQGIVPAQYVRRLAH [V51Q], the abundance fitness is 0.126 ± 0.19.
Still for that read-out and setting: the result for EQRVMALYDFQARSPREVTMKKGDVLTLLSSINKDWWKVEAADHQGIVPAMYVRRLAH [V51M] reads 0.149 ± 0.12; that for EQRVMALYDFQARSPREVTMKKGDVLTLLSSINKDWWKVEAADHQGIVPASYVRRLAH [V51S], 0.579 ± 0.08; that for EQRVMALYDFQARSPREVTMKKGDVLTLLSSINKDWWKVEAADHQGIVPAWYVRRLAH [V51W], -0.18 ± 0.15.
In the case of EQRVMALYDFQARSPREVTMKKGDVLTLLSSINKDWWKVEAADHQGIVPAPYVRRLAH [V51P], the abundance fitness is 0.173 ± 0.17.
With EQRVMALYDFQARSPREVTMKKGDVLTLLSSINKDWWKVEAADHQGIVPAYYVRRLAH [V51Y], the abundance fitness is -0.242 ± 0.1.
For the variant EQRVMALYDFQARSPREVTMKKGDVLTLLSSINKDWWKVEAADHQGIVPAVYVRRLDH [A57D], the abundance fitness was 0.507 ± 0.19.
For EQRVMALYDFQARSPREVTMKKGDVLTLLSSINKDWWKVEAADHQGIVPAVYVRRLTH [A57T], the abundance fitness is -0.022 ± 0.43.
Same read-out and setting: the result for EQRVMALYDFQARSPREVTMKKGDVLTLLSSINKDWWKVEAADHQGIVPAVYVRRLVH [A57V] reads -0.47 ± 0.23.
For the variant EQRVMALYDFQARSPREVTMKKGDVLTLLSSINKDWWKVEAADHQGIVPAVYVRRLPH [A57P], the abundance fitness was found to be 0.297 ± 0.14.
As to EQRVMALYDFQARSPREVTMKKGDVLTLLSSINKDWWKVEAADHQGIVPAVYVRRLKH [A57K], the abundance fitness stood at 0.933 ± 0.21.
Same read-out and setting: the figure for EQRVMALYDFQARSPREVTMKKGDVLTLLSSINKDWWKVEAADHQGIVPAVYVRRLRH [A57R] is -0.053 ± 0.16; for EQRVMALYDFQARSPREVTMKKGDVLTLLSSINKDWWKVEAADHQGIVPAVYVRRLQH [A57Q] it is 0.18 ± 0.36.
Turning to EQRVMALYDFQARSPREVTMKKGDVLTLLSSINKDWWKVEAADHQGIVPAVYVRRLNH [A57N], the abundance fitness came to 0.105 ± 0.47.
In the case of EQRVMALYDFQARSPREVTMKKGDVLTLLSSINKDWWKVEAADHQGIVPAVYVRRLSH [A57S], the abundance fitness is 0.236 ± 0.16.
As for EQRVMALYDFQARSPREVTMKKGDVLTLLSSINKDWWKVEAADHQGIVPAVYVRRLCH [A57C], the abundance fitness is -0.092 ± 0.15.

Variants of B2 are the subject of the next data set. The data set is described as above. To be noted: Homo sapiens.
Consider YELVKLQGERVRGLKQQKASAELIEEEVAKLLKLKAQL [E1Y], for which the abundance fitness is -1.05 ± 0.24.
Consider KELVKLQGERVRGLKQQKASAELIEEEVAKLLKLKAQL [E1K], for which the abundance fitness is -0.165 ± 0.15.
As for FELVKLQGERVRGLKQQKASAELIEEEVAKLLKLKAQL [E1F], the abundance fitness is -0.386 ± 0.24.
On to IELVKLQGERVRGLKQQKASAELIEEEVAKLLKLKAQL [E1I], for which the abundance fitness was -0.132 ± 0.16.
AELVKLQGERVRGLKQQKASAELIEEEVAKLLKLKAQL [E1A]: the abundance fitness is -0.62 ± 0.12.
The same measure, in the same setting: the result for TELVKLQGERVRGLKQQKASAELIEEEVAKLLKLKAQL [E1T] reads -0.692 ± 0.11; that for SELVKLQGERVRGLKQQKASAELIEEEVAKLLKLKAQL [E1S], -0.737 ± 0.14.
For DELVKLQGERVRGLKQQKASAELIEEEVAKLLKLKAQL [E1D], the abundance fitness was -0.377 ± 0.14.
For the variant CELVKLQGERVRGLKQQKASAELIEEEVAKLLKLKAQL [E1C], the abundance fitness was -1.18 ± 0.46.
WELVKLQGERVRGLKQQKASAELIEEEVAKLLKLKAQL [E1W]: the abundance fitness was -0.537 ± 0.17.
HELVKLQGERVRGLKQQKASAELIEEEVAKLLKLKAQL [E1H]: the abundance fitness was -1.02 ± 0.45.
Take MELVKLQGERVRGLKQQKASAELIEEEVAKLLKLKAQL [E1M]: the abundance fitness was -0.139 ± 0.15.
In the case of VELVKLQGERVRGLKQQKASAELIEEEVAKLLKLKAQL [E1V], the abundance fitness was -0.661 ± 0.086.
On the same count and under the same terms, the result for LELVKLQGERVRGLKQQKASAELIEEEVAKLLKLKAQL [E1L] reads -0.687 ± 0.098; that for RELVKLQGERVRGLKQQKASAELIEEEVAKLLKLKAQL [E1R], -0.992 ± 0.2; that for EPLVKLQGERVRGLKQQKASAELIEEEVAKLLKLKAQL [E2P], -0.9 ± 0.11.
On to EQLVKLQGERVRGLKQQKASAELIEEEVAKLLKLKAQL [E2Q], for which the abundance fitness was -0.472 ± 0.11.
For the variant EWLVKLQGERVRGLKQQKASAELIEEEVAKLLKLKAQL [E2W], the abundance fitness is -0.97 ± 0.098.
As for ENLVKLQGERVRGLKQQKASAELIEEEVAKLLKLKAQL [E2N], the abundance fitness was -0.049 ± 0.11.
As for ETLVKLQGERVRGLKQQKASAELIEEEVAKLLKLKAQL [E2T], the abundance fitness is -0.591 ± 0.081.
Consider EGLVKLQGERVRGLKQQKASAELIEEEVAKLLKLKAQL [E2G], for which the abundance fitness was -0.868 ± 0.2.
Take ERLVKLQGERVRGLKQQKASAELIEEEVAKLLKLKAQL [E2R]: the abundance fitness is -0.661 ± 0.1.
For the variant EKLVKLQGERVRGLKQQKASAELIEEEVAKLLKLKAQL [E2K], the abundance fitness was -0.703 ± 0.16.
For EILVKLQGERVRGLKQQKASAELIEEEVAKLLKLKAQL [E2I], the abundance fitness was -0.369 ± 0.087.
The same measure, in the same setting: the figure for ECLVKLQGERVRGLKQQKASAELIEEEVAKLLKLKAQL [E2C] is -1.08 ± 0.3; for EALVKLQGERVRGLKQQKASAELIEEEVAKLLKLKAQL [E2A] it is -0.665 ± 0.089; for EMLVKLQGERVRGLKQQKASAELIEEEVAKLLKLKAQL [E2M] it is -0.636 ± 0.11.
In the case of EFLVKLQGERVRGLKQQKASAELIEEEVAKLLKLKAQL [E2F], the abundance fitness was -0.274 ± 0.28.
ESLVKLQGERVRGLKQQKASAELIEEEVAKLLKLKAQL [E2S]: the abundance fitness is -0.327 ± 0.085.
Take ELLVKLQGERVRGLKQQKASAELIEEEVAKLLKLKAQL [E2L]: the abundance fitness is -0.632 ± 0.094.
In the case of EVLVKLQGERVRGLKQQKASAELIEEEVAKLLKLKAQL [E2V], the abundance fitness was -0.762 ± 0.085.
EHLVKLQGERVRGLKQQKASAELIEEEVAKLLKLKAQL [E2H]: the abundance fitness was -0.195 ± 0.079.
